According to US7919292B2, “Producing hydrogen by heterologous expression of a type II NAD (P)H dehydrogenase in Chlamydomonas” (Commissariat a l'Energie Atomique, priority 2004, dated 2011):
Where two headings read alike, the source gives them in different places.

Legend:
[1] = biological target: Agrobacterium tumefaciens NDH-II (Agrobacterium fabrum (Agrobacterium tumefaciens), UniProt Q7CY19); test: biochemical
Protocol: The activity of the Agrobacterium tumefaciens NDH-II was assayed using membranes from an E. coli strain deficient in NDH-I and NDH-II (ndh::tet; nuoB::nptl).
The cells were then collected by centrifugation (15 min, 3200×g) and washed twice with 10 ml of solution containing 200 mM Tris-Cl, pH 8, 2.5 mM EDTA and 0.2 mM PMSF. They were then ruptured by passing them twice through a French press at the pressure of 16 000 psi.
The membrane fraction was recovered by centrifugation (30 min, 48 500×g) and resuspended in 200 μl of analysis buffer (50 mM of phosphate buffer, pH 7.5, and 150 mM NaCl).
The O2 consumption of the E. coli ANN0222 membranes was measured by means of a Clark electrode (DW2/2, Hansatech, King's Lynn, England). After addition of the purified enzyme, this method made it possible to determine its specific activity. […]
In order to measure only the membrane-linked respiratory oxidase activity, catalase (1000 U/ml) and superoxide dismutase (SOD) (500 U/ml) were added to the reaction mixture. […] The inhibition kinetics were determined in the presence of 200 μM of NADH or of 2 mM of NADPH.

Chlamydomonas thylakoids = test: Photo-induced DNP-INT-sensitive oxygen uptake of Chlamydomonas thylakoids (electron transport from NAD(P)H to the photosynthetic chain); format: biochemical, Chlamydomonas reinhardtii
Protocol: (§1) A culture of 200 ml of Chlamydomonas reinhardtii (wild-type 137c) was sampled in the exponential growth phase (approximately 5×10^6 cells·ml^−1), and then centrifuged (5 min, 1000×g). The cells were washed in 35 mM HEPES-NaOH buffer (pH 7.2), resuspended in 10 ml of lysis buffer (50 mM tricine-NaOH, pH 8, 10 mM NaCl, 5 mM MgCl2, 1% BSA, 1 mM benzamidine and 1 mM PMSF) and stored in the cold and in the dark for the following steps.
The suspension was passed through a French press twice, at 2000 psi. The lysate was first centrifuged (5 min, 4° C., 500×g) in order to remove the unlysed cells, and the thylakoid membranes were then pelleted at 10 000×g for 10 min and resuspended in 250 to 500 μl of analysis buffer (50 mM tricine-NaOH, pH 7.2, 10 mM NaCl and 5 mM MgCl2).
In order to quantify this effect of the Agrobacterium NDH-II on the electron flow from NAD(P)H to the acceptors of PSI, oxygen consumption measurements were carried out in the presence of methyl viologen (an acceptor of PSI), of DCMU (an inhibitor of PSII) and of an NADH (200 μM) or NADPH (2 mM) electron donor.
The Chlamydomonas thylakoids (50 μl, corresponding to 85 μg·ml^−1 of chlorophyll) are placed in a Clark electrode containing 900 μl of analysis buffer (50 mM tricine-NaOH, pH 7.2, 10 mM NaCl and 5 mM MgCl2, 25 μM DCMU, 50 μM methyl viologen, SOD (500 U·ml^−1), catalase (1000 U·ml^−1), 4 μM of myxothiazol and 800 μM of SHAM (salicylhydroxamic acid). The latter two compounds are added in order to inhibit respiratory O2 uptake.
Under these conditions, the fraction of the photo-induced oxygen uptake sensitive to DNP-INT (2-iodo-6-isopropyl-3-methyl-2′,4,4′-trinitrodiphenyl ether; 10 μM), an inhibitor of cytochrome b6f, is proportional to the electron transport between the NAD(P)H and the photosynthetic chain.

[2] = test system: E. coli ANN0222 membranes; test: Enzymatic activity of purified NDH-II on bacterial membranes (O2 consumption, Clark electrode); format: biochemical; conditions: 25° C.; for Km: physiological pH
Protocol: In the next experiment, the capacity of this enzyme to transport electrons to the respiratory chain of E. coli was determined.

[3] = test system: E. coli ANN0222 membranes; test: Membrane NADH dehydrogenase activity of E. coli ANN0222 expressing Agtundh2 (O2 uptake); format: biochemical
Protocol: Two batches of E. coli ANN.0222 membrane fractions were prepared, from a culture of the control strain on LB medium and from a culture of the strain having incorporated the plasmid pSDN2Ag6H, cultured on LB medium in the presence of 0.1 mM IPTG. The cultures were carried out until an optical density of 1 at 600 nm was obtained. […] The cells were then ruptured by passing them through a French press twice, at 16 000 psi. The membrane fraction, collected by centrifugation (30 min, 4° C., 48,500×g), was taken up in 200 μl of buffer B (50 mM phosphate buffer, pH 7.5 and 150 mM NaCl).
The results are illustrated by FIG. 10B, which represents the O2 uptake, in the presence of NADH, of E. coli ANN0222 membranes prepared from the reference strain (control) and from the strain expressing Agtundh2.
To determine the catalytic efficiency of Agtundh2 expressed in E. coli, the specific activity was estimated from the amounts determined by Western blotting.
On the basis of the relative intensities of the signals obtained for the purified Agtundh2 protein and for the membrane fractions, the amount of Agtundh2 protein in the experiments illustrated by FIG. 10B was estimated at 0.6 μg protein. The maximum O2 uptakes under these conditions are thus estimated at 13.2/0.6=22 nmol O2 min^−1·μg^−1 protein, i.e. 44 nmol NADH min^−1·μg^−1 protein.

E. coli strain ANN.0222 = test: Complementation-growth test of NDH-deficient E. coli; format: cell-based; conditions: M9 + mannitol
Protocol: The functionality of the Agtundh2 protein in vivo in a heterologous host was tested by determining its capacity to restore the growth of a mutant E. coli strain, ANN.0222, deficient in NDH-1 and in NDH-2. This strain grows normally on LB medium, but is incapable of growing on minimum medium M9 supplemented with mannitol as the sole carbon source.
The E. coli strain ANN.0222 was chemically transformed (CaCl2) with the plasmid pSDN2Ag6H. The transformants were selected on LB agar medium (supplemented with 1% tryptone, 0.5% of yeast extract and 0.5% NaCl, pH 7) containing ampicillin (100 μg/ml). The transformants and the strain of origin were cultured until the middle of the exponential phase at 37° C. in liquid LB medium containing ampicillin (100 μg/ml). The cells were rinsed with sterile M9 medium, supplemented with mannitol as the sole carbon source (1× M9 salts, 2×10^−3 M MgSO4, 10^−4 M CaCl2, 0.4% mannitol). The cells were then diluted in M9 medium/mannitol and inoculated on a solid M9/mannitol/agar medium containing ampicillin and various concentrations of IPTG. The Petri dishes were incubated at 37° C. for 2 days. As a control, the same cells were inoculated in parallel on dishes containing LB agar medium containing ampicillin and various concentrations of IPTG, and then incubated at 37° C. overnight. […]

[4] = test system: Chlamydomonas reinhardtii plastoquinones; test: Plastoquinone reduction measured by chlorophyll fluorescence on thylakoid membranes; format: biochemical; conditions: NDH-II 1.5 μg·ml^−1, 200 μM NADH, anaerobic
Protocol: The plastoquinone-reducing activity by the Agrobacterium NDH-II was analyzed by measuring chlorophyll fluorescence. In the presence of a weak nonactinic illumination, the measurement of chlorophyll fluorescence provides an indication of the plastoquinone redox state.
as §1
The suspension was passed through a French press twice, at 2000 psi. […]
The photosystem II fluorescence was measured using a modulated light fluorimeter (PAM 101-103, Walz, Effeltrich, Germany).
A nonactinic modulated light (650 nm, 1.6 kHz) was used to determine the level of chlorophyll fluorescence F0. The maximum level of the chlorophyll fluorescence Fm was measured under a saturating flash of 1 second (approximately 1000 μmol photons·m^−2·s^−1). […]

[5] = Activity of wild-type and E201Q modified protein with NADH and NADPH; format: biochemical; conditions: FIG. 12
Protocol: The affinity of the modified protein for NADH and NADPH was determined.
The results are illustrated in FIG. 12.

| Molecule | IC50 [1] | electron transport, NADH as donor (Chlamydomonas thylakoids; 1.5 μg purified NDH-II added, NADH 200 μM, without enzyme 21) | electron transport, NADPH as donor (Chlamydomonas thylakoids; 1.5 μg purified NDH-II added, NADPH 2 mM, without enzyme 20) | stimulation factor of electron transport, NADH (Chlamydomonas thylakoids; NADH to thylakoid plastoquinones) | stimulation factor of electron transport, NADPH (Chlamydomonas thylakoids; NADPH to thylakoid plastoquinones) | Km ([2]; read-out: Km for NADH) | Km ([2]; read-out: Km for NADPH) | maximum activity (Vmax) ([2]; purified enzyme plus E. coli ANN0222 membranes, pH 7.5) | specific activity as NADH ([3]; Agtundh2 expressed in E. coli membranes) | maximum O2 uptake (specific activity) ([3]; Agtundh2 expressed in E. coli membranes, protein amount estimated by Western blotting at 0.6 μg) | O2 uptake of membranes on addition of NADH ([3]; strain transformed with pSDN2Ag6H, 0.1 mM IPTG, control strain none detected) | growth on minimal medium (E. coli strain ANN.0222; absence of IPTG) | growth on minimal medium (E. coli strain ANN.0222; induction with 0.1 mM IPTG) | increase in chlorophyll fluorescence (plastoquinone reduction) versus natural enzyme alone [4] | activity with 200 μM NADH compared with 200 μM NADPH [5] |
| --- | --- | --- | --- | --- | --- | --- | --- | --- | --- | --- | --- | --- | --- | --- | --- |
| c1ccc2c(c1)[I+]c1ccccc1-2 [DPI, diphenylene iodonium] | 10 µM |  |  |  |  |  |  |  |  |  |  |  |  |  |  |
| Agrobacterium NDH-II: type II NAD(P)H dehydrogenase from Agrobacterium tumefaciens, SEQ ID NO: 2, purified with 6His tag (protein, listed as Agrobacterium tumefaciens, 6His tag) MQEHHVVVVGGGFGGLQLVHGLEGAPVRITLIDRRNHHLFQPLLYQVATTALATSEIAWPIRHLYRDRKEVTTLLAEVTGVDRAARTVQLNSGQVIGFDTLVLATGARHAYFGHDEWERSAPGLKTLEDATTIRRRLLLAFERAELATSEEERQALLTFVIIGAGPTGVEMAGMIAELAHRALPAEFRNVDTRKTRVLLVEAGPRVLPVFTEDLSTYAKEALEKLGVEVLLGTPVTACTDEGVTVGETYYPCRTVVWAAGVQASPAAKWLNAAGDRAGRVIVGPQLHLEDDADIFVIGDTAAVNQENGKPVPGIAPAAKQQGAYVAKVIKARLEGKPIPAPFRYSHQGNLATIGKRAAVIDFGRFKLKGVLAWWIWGLAHIYFLIGTRSRLAVAWSWLWIYLSGQHSARLITQKETLKDEA |  | 67 nmol·min^−1·mg^−1 chlorophyll | 45 nmol·min^−1·mg^−1 chlorophyll | approximately 3 | approximately 2 | 10 µM | 50 µM | 5 μmol O2·min^−1·mg^−1 protein | 44 nmol NADH min^−1·μg^−1 protein | 22 nmol O2 min^−1·μg^−1 protein | considerable O2 uptake | partial complementation | restored | more rapid and more intense | clearly greater activity with 200 μM NADH |
